Three molecules from patent US9670264B2, “Water soluble G-protein coupled receptor” (The Trustees of The University of Pennsylvania, priority 2013, dated 2017) can be followed below.

Series [1] in a line: Secondary structure by circular dichroism (CD). As to conditions: CD 205-260 nm. It is filed as physicochemical. An excerpt: The CD spectra indicated predominantly helical structures with a helical secondary structure content of ˜48% (estimations based on the molar ellipticity over the range 205 to 260 nm). The comparison of the helical content with that of the native human MUR expressed in yeast system in the presence of high concentration of detergent (0.1% SDS) is presented in Table 1.
Background: Circular dichroism is the unequal absorption of left and right circularly polarised light.

Series [2] concerns human μ opioid receptor expressed in HEK293 cells. Description: Binding competition assay (TR-FRET/HTRF) between native human μ opioid receptor and water-soluble variants, with a fluorescent naltrexone-derived antagonist. As to conditions: FIG. 10, as for FIG. 7. An excerpt:
FIG. 7. […] Data is used to calculate HTRF ratios, and represent the mean±standard error of mean of quadruplicates. ΔF is used for the comparison of different runs of the same assay which reflects the signal to background of the assay. ΔF=[(Ratiosample−Ratiobackgroud)/Ratiobackgroud] (%).
A recently developed methodology which uses a fluorescently labeled ligand and the native MUR was used to investigate the ligand-binding capabilities of the water-soluble receptors.

Series [3] is described as follows: Effects of denaturant (urea) and reducing agent (2-ME), by CD and intrinsic tryptophan fluorescence. It is filed as physicochemical. Here is the method:
CD and intrinsic tryptophan fluorescence were used to probe disulfide bond formation in the water-soluble variant. […] Even in 8 M urea, the protein retains some helical structure (Table 2). Upon addition of 2-ME, both the molar ellipticity and fluorescence further decreased, becoming more pronounced at the higher concentration of the reducing agent (200 mM). Thus the presence of an intramolecular disulfide bond is corroborated in the case of wsMUR-TM.
Of particular interest are the tryptophan residues located in the partially buried transmembrane locations of the model structure (positions 194, 295, and 320). The fluorescence associated with these residues is expected to be sensitive to the local hydrophobic environment and overall folding of the protein.
The decrease of the tryptophan fluorescence under denaturing conditions and in the presence of 2-ME is consistent with the changes in CD spectra observed under similar conditions. The requirement of the reducing agent to fully denature and unfold the protein indicates the relevance of an intramolecular disulfide bond in stabilizing the receptor structure. […] However, the CD and ligand-binding studies are consistent with the adoption of the proper protein tertiary structure and by extension with the formation of the correct disulfide bond.

Series [4] in a line: Thermostability monitored by CD (222 nm). It is filed as physicochemical. To be noted: 5 mM sodium phosphate, pH=7.0; for melting point: 0.01% SDS.
Experimental: The secondary structure of the water-soluble variant was determined through circular dichroism (CD). Circular dichroism (CD) spectra were recorded by using CD Spectrometer (Chirascan, AppliedPhotophysics Limited, Leatherhead, United Kingdom) with a scan speed of 1 nm/s and 1 mm path length. Corresponding blanks were used for calibration for each assay and subtracted from raw data. Two data sets were recorded and averaged to increase the signal-to-noise ratio. The CDNN CD spectra deconvolution software was utilized to determine the secondary structure content of the proteins. […] Absorbance was maintained lower than 1.0 to ensure sufficient light transmission. The temperature-dependence curve was plotted using GraphPad Prism® (version 5, GraphPad Software, Inc. La Jolla).
Setting [5] is: pH 7.0 + 0.1% SDS, expressed in yeast system.
Where [6] appears, read: None (no denaturant or reducing agent; normalisation reference).

With “Native MUR: native human μ receptor expressed in yeast system, in 0.1% SDS [reference compound]”, in series [1] (setting [5]), the Helix content is listed as 40.6%, the Others content is 40.5% and the Turn content came to 18.9%.

B1: wsMUR-TM+7mut: second wsMUR recombinant protein (protein)
chain: SMITAIKILEEYKKVCEEGRKGNKLVMEVIVRYTKMKTATNIYIFNLAKADALAESTLPFQSVNKLMGTWPFGTILCKKVISIDYYNMFTSIFTLCTMSVDRYIAVCHPVKALDFRTPRNAKEHNEKNWKLSSEIGKPVEKRATTKYRQGSIDCTLTFSHPTWYWEDKLKDTVFKKAFEEPVKVIKECYGLMILRLKSVRMLSGSKEKDRNLRRITRMVLVVVEVFIKCWTEIHKYVKEGKL
With B1, in series [2], the “binding activity (interaction with naltrexone)” value is “binding activity was also observed”.

B2: wsMUR-TM: computationally designed transmembrane-only water-soluble variant of the human μ opioid receptor (protein)
chain: SMITAIKIHEEYKKVCEEGKKGNKLVMEVIVRYTKMKTATNIYIFNLAKADALAESTLPFQSVNKLMGTWPFGTILCKKVISIDYYNMFTSIFTLCTMSVDRYIAVCHPVKALDFRTPRNAKEENEKNWKLSSEIGKPVEKKATTKYRQGSIDCTLTFSHPTWYWEDKLKDEVFKKAFEEPVKKIKECYGLMILRLKSVRMLSGSKEKDRNLRRITRMVLVVVEVFIKCWTEIHKYVKEGKLVTIPETTFQTVSWHECIAKGYKNSCENPKLYEELDENFKRCFREFC
B2: the “Fluorescence Peak Intensity (%; 300-350 nm)” value in series [3] (setting [6]) came out at 100.0%; in series [3] (Urea (8M)), 28.4%; in series [3] (Urea (8M) 2-ME (25 mM)), 23.9%; in series [3] (Urea (8M) 2-ME (200 mM)), 4.5%. Besides, the “Molar Ellipticity (%; 222 nm)” value in series [3] (setting [6]) is reported as 100.0%; in series [3] (Urea (8M)), 40.0%; in series [3] (Urea (8M) 2-ME (25 mM)) it was 25.1%; in series [3] (Urea (8M) 2-ME (200 mM)) it was 0.0%. This molecule also had a Helix content in series [1] (pH 7.0 in NaHPO4) of 48.0%. Besides, the Others content in series [1] (pH 7.0 in NaHPO4) is given as 37.4%. The molecule further displayed a Turn content in series [1] (pH 7.0 in NaHPO4) of 14.6%. Also, the “temperature at which almost fully unfolded (almost complete loss in molar ellipticity)” value in series [4] (10 to 90° C.) was determined as 90 °C. Besides, in series [4] (10 to 90° C.), the “temperature at which ellipticity starts to be lost significantly” value is around 62 °C. Also, the figures for the melting point in series [4] (absence of cholesterol) and in series [4] (presence of cholesterol) were 82.9 °C and 89.3 °C, respectively.
